In patent publication US7223392 (dated 2007):

What was measured:
[1] = molecular target: p5E8G1; experiment: apparent Kd
[2] = molecular target: p5E8G1N-; experiment: apparent Kd

B1: human CD23 (receptor)
chain: MELQVSSGFVCNTCPEKWINFQRKCYYFGKGTKQWVHARYACDDMEGQLVSIHSPEEQDFLTKHASHTGSWIGLRNLDLKGEFIWVDGSHVDYSNWAPGEPTSRSQGEDCVMMRGSGRWNDAFCDRKLGAWVCDRLATCTPPASEGSAESMGPDSRPDPDGRLPTPSAPLHS
Question: How did the Kd [1] turn out when B1 was run?
Answer: 0.7 nM

Question: And the Kd [2]?
Answer: 0.7 nM
